Assay results published in patent US20200024322A1 (Eli Lilly, published 2020).
Residue numbers refer to the chain shown, from its start. Numbered stars: 1 amine (or outer) side, 2 acyl side, 3 side chain; on linkers, the order of the positions; unused ones are H or OH. Square brackets hold non-standard residues; d marks the D form. Side chains are listed from the residue outwards. Ends that are not written are not given here. * marks the point of attachment. C20 diacid = O=C(O)CCCCCCCCCCCCCCCCCCC(=O)*; γGlu = O=C(O)[C@H](CCC(=O)[*:2])N[*:1]; AEEA = NCCOCCOCC(=O)O; Aib = CC(C)(N)C(=O)O

T1: human GIP receptor (human, UniProt P48546 22-466)
T1 construct: whole, on cells; Used as crude membranes of stably transfected CHO cells; also called hGIPR
T1 sequence (looked up): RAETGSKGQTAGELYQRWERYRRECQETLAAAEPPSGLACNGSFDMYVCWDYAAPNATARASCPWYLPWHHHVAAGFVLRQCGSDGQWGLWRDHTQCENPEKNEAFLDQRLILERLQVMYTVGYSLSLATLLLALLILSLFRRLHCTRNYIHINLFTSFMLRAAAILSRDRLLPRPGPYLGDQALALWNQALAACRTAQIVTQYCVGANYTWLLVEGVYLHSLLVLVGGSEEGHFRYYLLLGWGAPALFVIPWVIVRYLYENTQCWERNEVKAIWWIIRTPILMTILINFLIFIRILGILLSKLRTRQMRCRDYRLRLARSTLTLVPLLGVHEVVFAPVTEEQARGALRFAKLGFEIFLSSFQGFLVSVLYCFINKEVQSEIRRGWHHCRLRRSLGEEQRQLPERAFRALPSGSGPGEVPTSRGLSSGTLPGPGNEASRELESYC

B1: Example 87 (peptide)
peptide: YXEGTFTSDYSILLDKKAQXAFIEYLIEGGPSSGAPPPS
modifications: αMePro2; K17((2-[2-(2-Amino-ethoxy)-ethoxy]-acetyl)2-(γ-Glu)-CO-(CH2)18-CO2H); Aib20; C-terminal NH2
B2: Example 135 (peptide)
peptide: H[Aib]NGTFTSDYSILLDKK([AEEA-AEEA-γGlu-C20 diacid])AQ[Aib]AFIEYLIEGGPSSGAPPPS-NH2
modifications: N-terminus assumed
SMILES: CC[C@H](C)[C@H](NC(=O)[C@H](CC(C)C)NC(=O)[C@H](Cc1ccc(O)cc1)NC(=O)[C@H](CCC(=O)O)NC(=O)[C@@H](NC(=O)[C@H](Cc1ccccc1)NC(=O)[C@H](C)NC(=O)C(C)(C)NC(=O)[C@H](CCC(N)=O)NC(=O)[C@H](C)NC(=O)[C@H](CCCCNC(=O)COCCOCCNC(=O)COCCOCCNC(=O)CC[C@H](NC(=O)CCCCCCCCCCCCCCCCCCC(=O)O)C(=O)O)NC(=O)[C@H](CCCCN)NC(=O)[C@H](CC(=O)O)NC(=O)[C@H](CC(C)C)NC(=O)[C@H](CC(C)C)NC(=O)[C@@H](NC(=O)[C@H](CO)NC(=O)[C@H](Cc1ccc(O)cc1)NC(=O)[C@H](CC(=O)O)NC(=O)[C@H](CO)NC(=O)[C@@H](NC(=O)[C@H](Cc1ccccc1)NC(=O)[C@@H](NC(=O)CNC(=O)[C@H](CC(N)=O)NC(=O)C(C)(C)NC(=O)[C@@H](N)Cc1c[nH]cn1)[C@@H](C)O)[C@@H](C)O)[C@@H](C)CC)[C@@H](C)CC)C(=O)N[C@@H](CCC(=O)O)C(=O)NCC(=O)NCC(=O)N1CCC[C@H]1C(=O)N[C@@H](CO)C(=O)N[C@@H](CO)C(=O)NCC(=O)N[C@@H](C)C(=O)N1CCC[C@H]1C(=O)N1CCC[C@H]1C(=O)N1CCC[C@H]1C(=O)N[C@@H](CO)C(N)=O
B3: Example 90 (peptide)
peptide: Y[Aib]NGTFTSDYSILLDKK([AEEA-AEEA-γGlu-C20 diacid])AQ[Aib]AFIEYLIEGGPSSGAPPPS-NH2
modifications: N-terminus assumed
SMILES: CC[C@H](C)[C@H](NC(=O)[C@H](CC(C)C)NC(=O)[C@H](Cc1ccc(O)cc1)NC(=O)[C@H](CCC(=O)O)NC(=O)[C@@H](NC(=O)[C@H](Cc1ccccc1)NC(=O)[C@H](C)NC(=O)C(C)(C)NC(=O)[C@H](CCC(N)=O)NC(=O)[C@H](C)NC(=O)[C@H](CCCCNC(=O)COCCOCCNC(=O)COCCOCCNC(=O)CC[C@H](NC(=O)CCCCCCCCCCCCCCCCCCC(=O)O)C(=O)O)NC(=O)[C@H](CCCCN)NC(=O)[C@H](CC(=O)O)NC(=O)[C@H](CC(C)C)NC(=O)[C@H](CC(C)C)NC(=O)[C@@H](NC(=O)[C@H](CO)NC(=O)[C@H](Cc1ccc(O)cc1)NC(=O)[C@H](CC(=O)O)NC(=O)[C@H](CO)NC(=O)[C@@H](NC(=O)[C@H](Cc1ccccc1)NC(=O)[C@@H](NC(=O)CNC(=O)[C@H](CC(N)=O)NC(=O)C(C)(C)NC(=O)[C@@H](N)Cc1ccc(O)cc1)[C@@H](C)O)[C@@H](C)O)[C@@H](C)CC)[C@@H](C)CC)C(=O)N[C@@H](CCC(=O)O)C(=O)NCC(=O)NCC(=O)N1CCC[C@H]1C(=O)N[C@@H](CO)C(=O)N[C@@H](CO)C(=O)NCC(=O)N[C@@H](C)C(=O)N1CCC[C@H]1C(=O)N1CCC[C@H]1C(=O)N1CCC[C@H]1C(=O)N[C@@H](CO)C(N)=O
B4: Example 110 (peptide)
peptide: B1 peptide
modifications: Aib2; K17((2-[2-(2-Amino-ethoxy)-ethoxy]-acetyl)-(γ-Glu)-(Trx)-CO-(CH2)18-CO2H); Aib20; C-terminal NH2
B5: Example 108 (peptide)
peptide: B1 peptide
modifications: Aib2; K17((2-[2-(2-Amino-ethoxy)-ethoxy]-acetyl)-AOC-(γ-Glu)-CO-(CH2)18-CO2H); Aib20; C-terminal NH2
B6: Example 109 (peptide)
peptide: B1 peptide
modifications: Aib2; K17(AOC-(2-[2-(2-Amino-ethoxy)-ethoxy]-acetyl)-(γ-Glu)-CO-(CH2)18-CO2H); Aib20; C-terminal NH2
B7: Example 50 (peptide)
peptide: Y[Aib]EGTFTSDYSILLDKK([AEEA-AEEA-γGlu-C20 diacid])AQ[Aib]AFIEYLIEGGPSSG-NH2
modifications: N-terminus assumed
SMILES: CC[C@H](C)[C@H](NC(=O)[C@H](CC(C)C)NC(=O)[C@H](Cc1ccc(O)cc1)NC(=O)[C@H](CCC(=O)O)NC(=O)[C@@H](NC(=O)[C@H](Cc1ccccc1)NC(=O)[C@H](C)NC(=O)C(C)(C)NC(=O)[C@H](CCC(N)=O)NC(=O)[C@H](C)NC(=O)[C@H](CCCCNC(=O)COCCOCCNC(=O)COCCOCCNC(=O)CC[C@H](NC(=O)CCCCCCCCCCCCCCCCCCC(=O)O)C(=O)O)NC(=O)[C@H](CCCCN)NC(=O)[C@H](CC(=O)O)NC(=O)[C@H](CC(C)C)NC(=O)[C@H](CC(C)C)NC(=O)[C@@H](NC(=O)[C@H](CO)NC(=O)[C@H](Cc1ccc(O)cc1)NC(=O)[C@H](CC(=O)O)NC(=O)[C@H](CO)NC(=O)[C@@H](NC(=O)[C@H](Cc1ccccc1)NC(=O)[C@@H](NC(=O)CNC(=O)[C@H](CCC(=O)O)NC(=O)C(C)(C)NC(=O)[C@@H](N)Cc1ccc(O)cc1)[C@@H](C)O)[C@@H](C)O)[C@@H](C)CC)[C@@H](C)CC)C(=O)N[C@@H](CCC(=O)O)C(=O)NCC(=O)NCC(=O)N1CCC[C@H]1C(=O)N[C@@H](CO)C(=O)N[C@@H](CO)C(=O)NCC(N)=O
B8: Example 49 (peptide)
peptide: Y[Aib]EGTFTSDYSILLDKIAQ[Aib]AFIEYLIEGGPSSGAPPPSK([AEEA-AEEA-γGlu-C20 diacid])-NH2
modifications: N-terminus assumed
SMILES: CC[C@H](C)[C@H](NC(=O)[C@H](CCCCN)NC(=O)[C@H](CC(=O)O)NC(=O)[C@H](CC(C)C)NC(=O)[C@H](CC(C)C)NC(=O)[C@@H](NC(=O)[C@H](CO)NC(=O)[C@H](Cc1ccc(O)cc1)NC(=O)[C@H](CC(=O)O)NC(=O)[C@H](CO)NC(=O)[C@@H](NC(=O)[C@H](Cc1ccccc1)NC(=O)[C@@H](NC(=O)CNC(=O)[C@H](CCC(=O)O)NC(=O)C(C)(C)NC(=O)[C@@H](N)Cc1ccc(O)cc1)[C@@H](C)O)[C@@H](C)O)[C@@H](C)CC)C(=O)N[C@@H](C)C(=O)N[C@@H](CCC(N)=O)C(=O)NC(C)(C)C(=O)N[C@@H](C)C(=O)N[C@@H](Cc1ccccc1)C(=O)N[C@H](C(=O)N[C@@H](CCC(=O)O)C(=O)N[C@@H](Cc1ccc(O)cc1)C(=O)N[C@@H](CC(C)C)C(=O)N[C@H](C(=O)N[C@@H](CCC(=O)O)C(=O)NCC(=O)NCC(=O)N1CCC[C@H]1C(=O)N[C@@H](CO)C(=O)N[C@@H](CO)C(=O)NCC(=O)N[C@@H](C)C(=O)N1CCC[C@H]1C(=O)N1CCC[C@H]1C(=O)N1CCC[C@H]1C(=O)N[C@@H](CO)C(=O)N[C@@H](CCCCNC(=O)COCCOCCNC(=O)COCCOCCNC(=O)CC[C@H](NC(=O)CCCCCCCCCCCCCCCCCCC(=O)O)C(=O)O)C(N)=O)[C@@H](C)CC)[C@@H](C)CC
B9: Example 1 (peptide)
peptide: YXEGTXTSDYSIXLDEKAQXEFIXYLIEGGPSSGAPPPS
modifications: Aib2; αMeF(2F)6; αMeL13; K17((2-[2-(2-Amino-ethoxy)-ethoxy]-acetyl)2-(γ-Glu)-CO-(CH2)18-CO2H); Aib20; D-Glu24; C-terminal NH2
B10: Example 2 (peptide)
peptide: B9 peptide with E16X
modifications: Aib2; αMeF(2F)6; αMeL13; Orn16; K17((2-[2-(2-Amino-ethoxy)-ethoxy]-acetyl)2-(γ-Glu)-CO-(CH2)16-CO2H); Aib20; D-Glu24; C-terminal NH2
B11: Example 211 (peptide)
peptide: B9 peptide with E16K
modifications: Aib2; αMeF(2F)6; αMeL13; K17((2-[2-(2-Amino-ethoxy)-ethoxy]-acetyl)-(γ-Glu)-(2-[2-(2-Amino-ethoxy)-ethoxy]-acetyl)-CO-(CH2)18-CO2H); Aib20; D-Glu24; C-terminal NH2
B12: Example 183 (peptide)
peptide: B9 peptide with Y10L
modifications: not printed (the compound name of this Example is missing from the table of Examples 6-287)
B13: Example 191 (peptide)
peptide: B9 peptide with Y10V
modifications: Aib2; αMeF(2F)6; αMeL13; K17((2-[2-(2-Amino-ethoxy)-ethoxy]-acetyl)2-(γ-Glu)-CO-(CH2)18-CO2H); Aib20; D-Glu24; C-terminal NH2
B14: Example 51 (peptide)
peptide: Y[Aib]EGTFTSDYSILLDKK([AEEA-AEEA-γGlu-C20 diacid])AQ[Aib]AFIEYLIEGG-NH2
modifications: N-terminus assumed
SMILES: CC[C@H](C)[C@H](NC(=O)[C@H](CC(C)C)NC(=O)[C@H](Cc1ccc(O)cc1)NC(=O)[C@H](CCC(=O)O)NC(=O)[C@@H](NC(=O)[C@H](Cc1ccccc1)NC(=O)[C@H](C)NC(=O)C(C)(C)NC(=O)[C@H](CCC(N)=O)NC(=O)[C@H](C)NC(=O)[C@H](CCCCNC(=O)COCCOCCNC(=O)COCCOCCNC(=O)CC[C@H](NC(=O)CCCCCCCCCCCCCCCCCCC(=O)O)C(=O)O)NC(=O)[C@H](CCCCN)NC(=O)[C@H](CC(=O)O)NC(=O)[C@H](CC(C)C)NC(=O)[C@H](CC(C)C)NC(=O)[C@@H](NC(=O)[C@H](CO)NC(=O)[C@H](Cc1ccc(O)cc1)NC(=O)[C@H](CC(=O)O)NC(=O)[C@H](CO)NC(=O)[C@@H](NC(=O)[C@H](Cc1ccccc1)NC(=O)[C@@H](NC(=O)CNC(=O)[C@H](CCC(=O)O)NC(=O)C(C)(C)NC(=O)[C@@H](N)Cc1ccc(O)cc1)[C@@H](C)O)[C@@H](C)O)[C@@H](C)CC)[C@@H](C)CC)C(=O)N[C@@H](CCC(=O)O)C(=O)NCC(=O)NCC(N)=O

biological target: T2, human glucagon receptor (human, UniProt P47871 26-477); experiment: SPA, [125I]-Gcg displacement, hGcgR membranes
T2 construct: whole, on cells; Used as crude membranes of stably transfected HEK293 cells; also called hGcgR; hGLcgR
T2 sequence (P47871 26-477): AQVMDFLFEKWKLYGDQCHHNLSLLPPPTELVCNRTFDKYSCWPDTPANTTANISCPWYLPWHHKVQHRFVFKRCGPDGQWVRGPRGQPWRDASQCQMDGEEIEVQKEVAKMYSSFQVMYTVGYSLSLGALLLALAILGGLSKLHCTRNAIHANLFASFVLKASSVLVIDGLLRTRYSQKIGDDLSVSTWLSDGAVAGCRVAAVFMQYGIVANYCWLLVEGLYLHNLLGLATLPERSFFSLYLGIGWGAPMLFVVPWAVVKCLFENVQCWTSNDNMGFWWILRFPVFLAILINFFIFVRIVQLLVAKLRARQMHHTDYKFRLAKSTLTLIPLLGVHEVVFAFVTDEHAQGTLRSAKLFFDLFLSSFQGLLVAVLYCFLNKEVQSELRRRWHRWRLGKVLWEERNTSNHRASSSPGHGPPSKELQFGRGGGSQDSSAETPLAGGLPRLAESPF

Row | Binder | Ki [nM]
1 | B1 | 278
2 | B2 | 454
3 | B3 | 245
4 | B4 | 73.9
5 | B5 | 171
6 | B6 | 43.1
7 | B7 | 220
8 | B8 | 236
9 | B9 | 207
10 | B10 | 361
11 | B11 | 131
12 | B12 | 304
13 | B13 | 348
14 | B14 | 195

biological target: T1, human GIP receptor; experiment: SPA, [125I]-GIP displacement, hGIPR membranes

Row | Binder | Ki [nM]
15 | B1 | 0.034
16 | B2 | 0.161
17 | B3 | 0.0472
18 | B4 | 0.0395
19 | B5 | 0.0732
20 | B6 | 0.0279
21 | B7 | 0.0568
22 | B8 | 0.087
23 | B9 | 0.0546
24 | B10 | 0.06
25 | B11 | 0.0243
26 | B12 | 0.0869
27 | B13 | 0.144
28 | B14 | 0.062

biological target: T3, human GLP-1 receptor (human, UniProt P43220 24-463); experiment: SPA, [125I]-GLP-1 displacement, hGLP-1R membranes
T3 construct: whole, on cells; Used as crude membranes of stably transfected HEK293 cells; also called hGLP1R; hGLP-1R

Row | Binder | Ki [nM]
29 | B1 | 1.79
30 | B2 | 3.01
31 | B3 | 4.76
32 | B4 | 4.38
33 | B5 | 3
34 | B6 | 1.34
35 | B7 | 4.71
36 | B8 | 12.3
37 | B9 | 6.67
38 | B10 | 2.35
39 | B11 | 2.64
40 | B12 | 4.11
41 | B13 | 4.52
42 | B14 | 5.62
